Laboratory results as given in patent US20240424125A1 (Zymeworks, published 2024).

Key:
[1] = molecular target: T1, human FRα on cells (human, UniProt P15328 25-234); experiment: cell-based or functional assay
[2] = molecular target: T1, human FRα on cells; experiment: cell-based or functional assay; remark: listed apart in the source

T1 sequence (P15328 25-234 limits assumed): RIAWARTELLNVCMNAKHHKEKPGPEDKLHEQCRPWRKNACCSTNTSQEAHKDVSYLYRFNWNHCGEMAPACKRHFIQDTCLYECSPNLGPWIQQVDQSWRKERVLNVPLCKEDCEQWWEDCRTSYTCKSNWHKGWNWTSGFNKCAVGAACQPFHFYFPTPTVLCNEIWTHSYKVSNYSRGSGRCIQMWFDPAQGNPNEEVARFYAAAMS

Binder | EC50 (nM), in vitro cytotoxicity, 2D monolayer, JEG-3 cells, 4 days [1] [nM] | EC50 (nM), in vitro cytotoxicity, 2D monolayer, KB-HeLa cells, 4 days [1] [nM] | EC50 (nM), in vitro cytotoxicity, 2D monolayer, T-47D cells, 4 days [1] [nM] | 3D EC50 (nM), in vitro cytotoxicity, HEC-1-A spheroids, 6 days [2] [nM] | 3D EC50 (nM), in vitro cytotoxicity, IGROV-1 spheroids, 6 days [2] [nM] | 3D EC50 (nM), in vitro cytotoxicity, OVCAR-3 spheroids, 6 days [2] [nM] | 3D EC50 (nM), in vitro cytotoxicity, T-47D spheroids, 6 days [2] [nM]
v30384-MC-GGFG-AM-DXd1 (antibody, human IgG1, kappa, drug-linker MC-GGFG-AM-DXd1 on the antibody at DAR 8; conjugated residues not stated) heavy 1: EVQLLESGGGLVQPGGSLRLSCAVSGFSLSSYGVSWVRQAPGKGLEWIGAVNSGGSAYYADSVKGRSTISRDNSKNTVYLQMNSLRAEDTAVYYCARSGSGYPMDYLAIWGQGTLVTVSSASTKGPSVFPLAPSSKSTSGGTAALGCLVKDYFPEPVTVSWNSGALTSGVHTFPAVLQSSGLYSLSSVVTVPSSSLGTQTYICNVNHKPSNTKVDKKVEPKSCDKTHTCPPCPAPELLGGPSVFLFPPKPKDTLMISRTPEVTCVVVDVSHEDPEVKFNWYVDGVEVHNAKTKPREEQYNSTYRVVSVLTVLHQDWLNGKEYKCKVSNKALPAPIEKTISKAKGQPREPQVYVYPPSRDELTKNQVSLTCLVKGFYPSDIAVEWESNGQPENNYKTTPPVLDSDGSFALVSKLTVDKSRWQQGNVFSCSVMHEALHNHYTQKSLSLSPG heavy 2: not shown light: DYQMTQSPSSVSASVGDRVTITCRASQSIGDWLAWYQQKPGKAPKLLIYEASTLASGVPSRFSGSGSGTDFTLTISSVQPEDAATYYCQQGYGRSNVDNIFGGGTKVEVKRTVAAPSVFIFPPSDEQLKSGTASVVCLLNNFYPREAKVQWKVDNALQSGNSQESVTEQDSKDSTYSLSSTLTLSKADYEKHKVYACEVTHQGLSSPVTKSFNRGEC | 0.54 | 0.52 | 2.08 | 1.1 | 0.5 | 8.2 | 0.9
v30384-MT-GGFG-AM-Compound 139 (antibody, human IgG1, kappa, drug-linker MT-GGFG-AM-Compound 139 on the antibody at DAR 8; conjugated residues not stated) heavy 1: EVQLLESGGGLVQPGGSLRLSCAVSGFSLSSYGVSWVRQAPGKGLEWIGAVNSGGSAYYADSVKGRSTISRDNSKNTVYLQMNSLRAEDTAVYYCARSGSGYPMDYLAIWGQGTLVTVSSASTKGPSVFPLAPSSKSTSGGTAALGCLVKDYFPEPVTVSWNSGALTSGVHTFPAVLQSSGLYSLSSVVTVPSSSLGTQTYICNVNHKPSNTKVDKKVEPKSCDKTHTCPPCPAPELLGGPSVFLFPPKPKDTLMISRTPEVTCVVVDVSHEDPEVKFNWYVDGVEVHNAKTKPREEQYNSTYRVVSVLTVLHQDWLNGKEYKCKVSNKALPAPIEKTISKAKGQPREPQVYVYPPSRDELTKNQVSLTCLVKGFYPSDIAVEWESNGQPENNYKTTPPVLDSDGSFALVSKLTVDKSRWQQGNVFSCSVMHEALHNHYTQKSLSLSPG heavy 2: not shown light: DYQMTQSPSSVSASVGDRVTITCRASQSIGDWLAWYQQKPGKAPKLLIYEASTLASGVPSRFSGSGSGTDFTLTISSVQPEDAATYYCQQGYGRSNVDNIFGGGTKVEVKRTVAAPSVFIFPPSDEQLKSGTASVVCLLNNFYPREAKVQWKVDNALQSGNSQESVTEQDSKDSTYSLSSTLTLSKADYEKHKVYACEVTHQGLSSPVTKSFNRGEC | 1.14 | 0.72 | 1.12 | 3.9 | 1 | 1.5 | 1.1
v30384-MT-GGFG-Compound 140 (antibody, human IgG1, kappa, drug-linker MT-GGFG-Compound 140 on the antibody at DAR 8; conjugated residues not stated) heavy 1: EVQLLESGGGLVQPGGSLRLSCAVSGFSLSSYGVSWVRQAPGKGLEWIGAVNSGGSAYYADSVKGRSTISRDNSKNTVYLQMNSLRAEDTAVYYCARSGSGYPMDYLAIWGQGTLVTVSSASTKGPSVFPLAPSSKSTSGGTAALGCLVKDYFPEPVTVSWNSGALTSGVHTFPAVLQSSGLYSLSSVVTVPSSSLGTQTYICNVNHKPSNTKVDKKVEPKSCDKTHTCPPCPAPELLGGPSVFLFPPKPKDTLMISRTPEVTCVVVDVSHEDPEVKFNWYVDGVEVHNAKTKPREEQYNSTYRVVSVLTVLHQDWLNGKEYKCKVSNKALPAPIEKTISKAKGQPREPQVYVYPPSRDELTKNQVSLTCLVKGFYPSDIAVEWESNGQPENNYKTTPPVLDSDGSFALVSKLTVDKSRWQQGNVFSCSVMHEALHNHYTQKSLSLSPG heavy 2: not shown light: DYQMTQSPSSVSASVGDRVTITCRASQSIGDWLAWYQQKPGKAPKLLIYEASTLASGVPSRFSGSGSGTDFTLTISSVQPEDAATYYCQQGYGRSNVDNIFGGGTKVEVKRTVAAPSVFIFPPSDEQLKSGTASVVCLLNNFYPREAKVQWKVDNALQSGNSQESVTEQDSKDSTYSLSSTLTLSKADYEKHKVYACEVTHQGLSSPVTKSFNRGEC | 1.29 | 3.75 | 12.4 |  |  |  | 
v30384-MC-GGFG-AM-Compound 141 (antibody, human IgG1, kappa, drug-linker MC-GGFG-AM-Compound 141 on the antibody at DAR 8; conjugated residues not stated) heavy 1: EVQLLESGGGLVQPGGSLRLSCAVSGFSLSSYGVSWVRQAPGKGLEWIGAVNSGGSAYYADSVKGRSTISRDNSKNTVYLQMNSLRAEDTAVYYCARSGSGYPMDYLAIWGQGTLVTVSSASTKGPSVFPLAPSSKSTSGGTAALGCLVKDYFPEPVTVSWNSGALTSGVHTFPAVLQSSGLYSLSSVVTVPSSSLGTQTYICNVNHKPSNTKVDKKVEPKSCDKTHTCPPCPAPELLGGPSVFLFPPKPKDTLMISRTPEVTCVVVDVSHEDPEVKFNWYVDGVEVHNAKTKPREEQYNSTYRVVSVLTVLHQDWLNGKEYKCKVSNKALPAPIEKTISKAKGQPREPQVYVYPPSRDELTKNQVSLTCLVKGFYPSDIAVEWESNGQPENNYKTTPPVLDSDGSFALVSKLTVDKSRWQQGNVFSCSVMHEALHNHYTQKSLSLSPG heavy 2: not shown light: DYQMTQSPSSVSASVGDRVTITCRASQSIGDWLAWYQQKPGKAPKLLIYEASTLASGVPSRFSGSGSGTDFTLTISSVQPEDAATYYCQQGYGRSNVDNIFGGGTKVEVKRTVAAPSVFIFPPSDEQLKSGTASVVCLLNNFYPREAKVQWKVDNALQSGNSQESVTEQDSKDSTYSLSSTLTLSKADYEKHKVYACEVTHQGLSSPVTKSFNRGEC | 3.45 | 0.77 | 0.43 | 8.5 | 0.6 | 1.8 | 0.4
v30384-MC-GGFG-Compound 140 (antibody, human IgG1, kappa, drug-linker MC-GGFG-Compound 140 on the antibody at DAR 8; conjugated residues not stated) heavy 1: EVQLLESGGGLVQPGGSLRLSCAVSGFSLSSYGVSWVRQAPGKGLEWIGAVNSGGSAYYADSVKGRSTISRDNSKNTVYLQMNSLRAEDTAVYYCARSGSGYPMDYLAIWGQGTLVTVSSASTKGPSVFPLAPSSKSTSGGTAALGCLVKDYFPEPVTVSWNSGALTSGVHTFPAVLQSSGLYSLSSVVTVPSSSLGTQTYICNVNHKPSNTKVDKKVEPKSCDKTHTCPPCPAPELLGGPSVFLFPPKPKDTLMISRTPEVTCVVVDVSHEDPEVKFNWYVDGVEVHNAKTKPREEQYNSTYRVVSVLTVLHQDWLNGKEYKCKVSNKALPAPIEKTISKAKGQPREPQVYVYPPSRDELTKNQVSLTCLVKGFYPSDIAVEWESNGQPENNYKTTPPVLDSDGSFALVSKLTVDKSRWQQGNVFSCSVMHEALHNHYTQKSLSLSPG heavy 2: not shown light: DYQMTQSPSSVSASVGDRVTITCRASQSIGDWLAWYQQKPGKAPKLLIYEASTLASGVPSRFSGSGSGTDFTLTISSVQPEDAATYYCQQGYGRSNVDNIFGGGTKVEVKRTVAAPSVFIFPPSDEQLKSGTASVVCLLNNFYPREAKVQWKVDNALQSGNSQESVTEQDSKDSTYSLSSTLTLSKADYEKHKVYACEVTHQGLSSPVTKSFNRGEC |  |  |  | 6.7 | 0.2 | 20.5 | 1.6
v30384-MT-GGFG-Compound 148 (antibody, human IgG1, kappa, drug-linker MT-GGFG-Compound 148 on the antibody at DAR 8; conjugated residues not stated) heavy 1: EVQLLESGGGLVQPGGSLRLSCAVSGFSLSSYGVSWVRQAPGKGLEWIGAVNSGGSAYYADSVKGRSTISRDNSKNTVYLQMNSLRAEDTAVYYCARSGSGYPMDYLAIWGQGTLVTVSSASTKGPSVFPLAPSSKSTSGGTAALGCLVKDYFPEPVTVSWNSGALTSGVHTFPAVLQSSGLYSLSSVVTVPSSSLGTQTYICNVNHKPSNTKVDKKVEPKSCDKTHTCPPCPAPELLGGPSVFLFPPKPKDTLMISRTPEVTCVVVDVSHEDPEVKFNWYVDGVEVHNAKTKPREEQYNSTYRVVSVLTVLHQDWLNGKEYKCKVSNKALPAPIEKTISKAKGQPREPQVYVYPPSRDELTKNQVSLTCLVKGFYPSDIAVEWESNGQPENNYKTTPPVLDSDGSFALVSKLTVDKSRWQQGNVFSCSVMHEALHNHYTQKSLSLSPG heavy 2: not shown light: DYQMTQSPSSVSASVGDRVTITCRASQSIGDWLAWYQQKPGKAPKLLIYEASTLASGVPSRFSGSGSGTDFTLTISSVQPEDAATYYCQQGYGRSNVDNIFGGGTKVEVKRTVAAPSVFIFPPSDEQLKSGTASVVCLLNNFYPREAKVQWKVDNALQSGNSQESVTEQDSKDSTYSLSSTLTLSKADYEKHKVYACEVTHQGLSSPVTKSFNRGEC | 0.54 | 0.73 | 3.45 |  |  |  | 
v30384-MT-GGFG-Compound 141 (antibody, human IgG1, kappa, drug-linker MT-GGFG-Compound 141 on the antibody at DAR 8; conjugated residues not stated) heavy 1: EVQLLESGGGLVQPGGSLRLSCAVSGFSLSSYGVSWVRQAPGKGLEWIGAVNSGGSAYYADSVKGRSTISRDNSKNTVYLQMNSLRAEDTAVYYCARSGSGYPMDYLAIWGQGTLVTVSSASTKGPSVFPLAPSSKSTSGGTAALGCLVKDYFPEPVTVSWNSGALTSGVHTFPAVLQSSGLYSLSSVVTVPSSSLGTQTYICNVNHKPSNTKVDKKVEPKSCDKTHTCPPCPAPELLGGPSVFLFPPKPKDTLMISRTPEVTCVVVDVSHEDPEVKFNWYVDGVEVHNAKTKPREEQYNSTYRVVSVLTVLHQDWLNGKEYKCKVSNKALPAPIEKTISKAKGQPREPQVYVYPPSRDELTKNQVSLTCLVKGFYPSDIAVEWESNGQPENNYKTTPPVLDSDGSFALVSKLTVDKSRWQQGNVFSCSVMHEALHNHYTQKSLSLSPG heavy 2: not shown light: DYQMTQSPSSVSASVGDRVTITCRASQSIGDWLAWYQQKPGKAPKLLIYEASTLASGVPSRFSGSGSGTDFTLTISSVQPEDAATYYCQQGYGRSNVDNIFGGGTKVEVKRTVAAPSVFIFPPSDEQLKSGTASVVCLLNNFYPREAKVQWKVDNALQSGNSQESVTEQDSKDSTYSLSSTLTLSKADYEKHKVYACEVTHQGLSSPVTKSFNRGEC | 1.68 | 0.81 | 0.44 | 5 | 1 | 1.6 | 0.4
